According to PMC6522968:

Molecular target: Glu387 (UniProt position 387, YMYVTENGIAD)
Assay: kinetics
Conditions: 65 °C; 50.0 mM sodium citrate (pH 3.0–5.6), sodium phosphate (pH 6.0–8.0) and KCl/borate (pH 8.0–10.0); enzyme-substrate complex with 4Np-Glc, as described by the authors; folded, active enzyme

Row | Substance | pKa
1 | beta-glycosidase (Ssβ-gly) H150A mutant (A150) (Sulfolobus solfataricus (Saccharolobus solfataricus); H150A) | 5.29 ± 0.18
2 | beta-glycosidase (Ssβ-gly) (Sulfolobus solfataricus (Saccharolobus solfataricus)) | 3.41 ± 0.13
